Key:
[1] = target: T1, human VEGF-A165 (human, UniProt P15692 207-395); experiment: SPR, VEGF-A immobilised, positive control, 1:1 dissociation fit
T1 construct: R&D Systems; homodimer; also called recombinant human VEGF-A

[2] = target: T1, human VEGF-A165; experiment: SPR (Biacore T100), VEGF-A immobilised, VEGFR-2-Fc5 analyte, bivalent analyte fit

B1: human VEGFR-2-Fc5 (Fc fusion)
chain: not shown
notes: also called VEGF Receptor-2
[1]
  koff: ~0.0002 s⁻¹
[2]
  Ka: 1e+08 M⁻¹
  Kd: 10 nM
  koff: 0.0002 s⁻¹
  kon: 20000 M⁻¹ s⁻¹
